Source: FireProtDB (doi:10.1016/j.jmb.2010.09.022)

B1: Profilin, Q58NA1 (parent)
chain: MSDWDPVVKEWLVDTGYCCAGGIANAEDGVVFAAAADDDDGWSKLYKDDHEEDTIGEDGNACGKVSINEASTIKAAVDDGSAPNGVWIGGQKYKVVRPEKGFEYNDCTFDITMCARSKGGAHLIKTPNGSIVIALYDEEKEQDKGNSRTSALAFAEYLHQSGY

Variants of: B1
Conditions: Toxoplasma gondii; pH 7.5; Thermal; CD; HEPES 10mM; KCl 100mM; reversible: yes; structure 3NEC; whole UniProt chain shown

| Variant | Tm | change of melting temperature, mutant - wild type (higher = more stable) |
| --- | --- | --- |
| D38Q D39G | 51.3 °C | -1.8 °C |
| K94Q V95F R97N P98I T112A M113T | 62.2 °C | 9.1 °C |
